For data set [1], the target named is T1, Saccharomyces cerevisiae mitochondrial pyruvate carrier 1 (Mpc1) with C-terminal 8×His-tag (Saccharomyces cerevisiae), P53157.
T1 chain: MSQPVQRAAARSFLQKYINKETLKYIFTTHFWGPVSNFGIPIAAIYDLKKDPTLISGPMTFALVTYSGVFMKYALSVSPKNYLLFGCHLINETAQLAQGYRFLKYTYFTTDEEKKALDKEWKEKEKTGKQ
The data set is described as follows: SEC-MALS; Superdex 75 with Dawn HELEOS II, three-detector method (MALS/UV/RI), 0.3 mL/min; 100 mM Tris/HCl pH 7.5, 150 mM NaCl, 1 mM EDTA, 10 mM β-ME, 1 mM DPC, 2 mM LDAO; second elution peak of each complex. Conditions: remark: other sources report otherwise.

Data set [2] deals with the molecule itself. The data set is described as above.
Data set [3] concerns the target T2, Mpc1^linker: Mpc1 with C-terminal ENLYFQG (TEV site), flexible linker (GGGGS)4, WSHPQFEK and 8×His-tag (Saccharomyces cerevisiae, UniProt P53157 1-130).
T2 construct: Mpc1, Saccharomyces cerevisiae, NCBI NM_001180945; The extension was added so that Mpc1 and Mpc2 can be told apart by size on SDS-PAGE; no TEV cleavage is described; not shown: 8×His, C-terminal, kept
T2 sequence (looked up): T1 chain
The data set is described as follows: SEC; monomers refolded alone or pre-mixed 1:1 in LDAO/DPC (2:1), then Superdex 75 10/300 GL in 100 mM Tris/HCl pH 7.5, 150 mM NaCl, 1 mM EDTA, 10 mM β-ME, 1 mM DPC, 2 mM LDAO; peaks analysed by SDS-PAGE with Coomassie staining. The following applies: both partners purified. (In general: Size exclusion chromatography separates by hydrodynamic size, large species first.)

For data set [4], the target named is T3, Saccharomyces cerevisiae mitochondrial pyruvate carrier 1 (Mpc1) with C-terminal 8×His-tag (Saccharomyces cerevisiae, UniProt P53157 1-130).
T3 construct: Mpc1, Saccharomyces cerevisiae, NCBI NM_001180945; amplified from a cDNA library with printed primers that run from the ATG to the last codon before the stop; 15N-labelled where it was the observed partner in NMR; The reverse primer carries a BamHI site, so a few vector-coded residues may lie between Mpc1 and the His-tag (surmised); also called 15N-Mpc1; yeast Mpc1
T3 sequence (looked up): T1 chain
The data set is described as follows: paramagnetic relaxation enhancement (PRE) NMR; MTSL-labelled monomer co-refolded with 15N-labelled monomer; 1H-15N BEST-TROSY with and without vitamin C; 25 mM NaAc pH 6.0, 50 mM glutamic acid, 50 mM arginine, 10 mM β-ME, 1 mM EDTA, 1 mM DPC, 2 mM LDAO; 308 K, 850 MHz. The following applies: both partners purified.

B1: Saccharomyces cerevisiae mitochondrial pyruvate carrier 1 (Mpc1) with C-terminal 8×His-tag, P53157 1-130 (natural protein)
chain: T1 chain
On to B1, for which the stoichiometry N (as a rule, a count of units in the complex or per binding partner) in data set [1] amounted to 2.

B2: Saccharomyces cerevisiae mitochondrial pyruvate carrier 2 (Mpc2) with C-terminal 8×His-tag (natural protein, UniProt P38857 1-129, looked up)
chain: MSTSSVRFAFRRFWQSETGPKTVHFWAPTLKWGLVFAGFSDMKRPVEKISGAQNLSLLSTALIWTRWSFVIKPRNILLASVNSFLCLTAGYQLGRIANYRIRNGDSISQLCSYILSGADESKKEITTGR
notes: Mpc2, Saccharomyces cerevisiae, NCBI NM_001179293; amplified from a cDNA library with printed primers that run from the ATG to the last codon before the stop; 15N-labelled where it was the observed partner in NMR; The reverse primer carries a BamHI site, so a few vector-coded residues may lie between Mpc2 and the His-tag (surmised); also called 15N-Mpc2; yeast Mpc2
With B2, the entries for the “stoichiometry N” value in data set [2] and in data set [3] were 2 and ~1, respectively.

B3: MTSL-labelled Mpc2 monomer (MTSL on C86 and C111) (natural protein, Saccharomyces cerevisiae, UniProt P38857 1-129, looked up)
chain: B2 chain
modifications: MTSL spin label on C86 and C111
notes: Mpc2, Saccharomyces cerevisiae, NCBI NM_001179293; same construct as m2, not isotope-labelled; Same chain as m2 with the paramagnetic probe on its cysteines; also called MTSL–Mpc2; source: E. coli Rosetta 2 (DE3), inclusion bodies, purified
As to B3, the binding result in data set [4] is recorded as “binds”.

(Values after PMC10216714, “NMR and Patch-Clamp Characterization of Yeast Mitochondrial Pyruvate Carrier Complexes” (Biomolecules, 2023).)
